Publication PMC10404244, “Control of motor landing and processivity by the CAP-Gly domain in the KIF13B tail” (Nature Communications, 2023)
Residue numbers refer to the chain shown, from its start. Names and notes keep the numbering of the source.

Legend:
[1] = biological target: T1, tyrosinated microtubules polymerized from recombinant human α1A/βIII tubulin (human, UniProt Q71U36 1-451; Q13509 1-450); assay: TIRF microscopy microtubule-binding assay (standard deviation map); differentially labelled tyrosinated and detyrosinated taxol microtubules held by biotin-streptavidin in the same chamber, sfGFP motors in solution, 2 mM ATP, HP assay buffer pH 7.0; conditions: both partners purified
T1 construct: human alpha-tubulin isotype α1A, fully tyrosinated; human beta-tubulin isotype βIII; Plasmids (pFAST-Dual) were gifts from A. Roll-Mecak; also called recombinant human tubulin (fully tyrosinated); not shown: His tag (from the HisTrap purification)
T1 sequence (Q71U36 whole entry, chain 1 of 2): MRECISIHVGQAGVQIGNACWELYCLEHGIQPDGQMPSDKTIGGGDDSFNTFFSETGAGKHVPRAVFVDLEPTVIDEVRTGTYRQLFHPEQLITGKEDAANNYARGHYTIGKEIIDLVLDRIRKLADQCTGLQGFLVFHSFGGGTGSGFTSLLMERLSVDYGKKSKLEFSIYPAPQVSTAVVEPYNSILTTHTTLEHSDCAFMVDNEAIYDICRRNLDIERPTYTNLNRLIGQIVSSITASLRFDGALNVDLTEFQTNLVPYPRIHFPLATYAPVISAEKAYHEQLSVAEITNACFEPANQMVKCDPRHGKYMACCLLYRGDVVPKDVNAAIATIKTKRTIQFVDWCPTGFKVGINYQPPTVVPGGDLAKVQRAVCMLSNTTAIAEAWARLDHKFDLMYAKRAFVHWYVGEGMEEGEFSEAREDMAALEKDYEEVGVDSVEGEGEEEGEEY
T1 sequence (Q13509 whole entry, chain 2 of 2): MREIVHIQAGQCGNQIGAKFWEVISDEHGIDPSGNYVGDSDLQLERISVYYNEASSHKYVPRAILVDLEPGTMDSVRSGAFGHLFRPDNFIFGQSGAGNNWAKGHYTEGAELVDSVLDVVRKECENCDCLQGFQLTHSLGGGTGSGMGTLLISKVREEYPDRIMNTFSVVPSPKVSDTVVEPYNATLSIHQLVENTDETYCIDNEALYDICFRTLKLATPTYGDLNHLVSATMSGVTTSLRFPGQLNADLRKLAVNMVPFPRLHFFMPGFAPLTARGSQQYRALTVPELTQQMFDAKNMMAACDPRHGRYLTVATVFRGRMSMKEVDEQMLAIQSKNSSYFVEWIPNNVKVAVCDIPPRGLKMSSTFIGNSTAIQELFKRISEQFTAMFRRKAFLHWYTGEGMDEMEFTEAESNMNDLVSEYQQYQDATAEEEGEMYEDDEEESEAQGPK

[2] = biological target: the molecule itself; assay: two-colour single-molecule TIRF microscopy; sfGFP- and mScarlet (I)-tagged KIF13BK414A co-expressed and purified together (molar ratio ~1:5 mScarlet (I): sfGFP), seen on immobilised tyrosinated and CPA-treated detyrosinated microtubules; 2 mM ATP or 2 mM ADP
[3] = biological target: the molecule itself; assay: mass photometry; 5, 25 and 100 nM protein in HP buffer (90 mM HEPES, 10 mM PIPES, 50 mM K-acetate, 2 mM Mg-acetate, 1 mM EGTA, 10% glycerol, pH 7.0), room temperature; result told over the whole range; monomer to dimer
[4] = biological target: the molecule itself; assay: mass photometry; lower concentration(s) of the construct (KIF13B^Δtail: the lower of two; KIF13B^CG: low and intermediate), HP buffer pH 7.0, room temperature; monomer to dimer

B1: human KIF13B CAP-Gly fragment (a.a. 1685–1826), N-terminal sfGFP-StrepII (domain or fragment)
chain: QALASDSEEADEVPEWLREGEFVTVGAHKTGVVRYVGPADFQEGTWVGVELDLPSGKNDGSIGGKQYFRCNPGYGLLVRPSRVRRATGPVRRRSTGLRLGAPEARRSATLSGSATNLASLTAALAKADRSHKNPENRKSWAS
notes: KIF13B, human, a.a; 1685–1826: CAP-Gly domain and an ~80 residue unstructured C-terminal region; The sfGFP-StrepII tag is joined to the N-terminus of the fragment through a 3xGGGGS linker (pET28a); the methods hold here; also called KIF13B^CG; KIF13^CG; source: E. coli BL21-CodonPlus (DE3)-RIPL, purified (Strep-Tactin XT, HiTrap Q, Superdex 200); not shown: sfGFP, N-terminal, kept
B1: binds [1].

B2: KIF13B K414A, full-length human KIF13B with the point mutation K414A, C-terminal sfGFP-StrepII (natural protein, UniProt Q9NQT8 1-1826, looked up)
chain: MGDSKVKVAVRIRPMNRRETDLHTKCVVDVDANKVILNPVNTNLSKGDARGQPKVFAYDHCFWSMDESVKEKYAGQDIVFKCLGENILQNAFDGYNACIFAYGQTGSGKSYTMMGTADQPGLIPRLCSGLFERTQKEENEEQSFKVEVSYMEIYNEKVRDLLDPKGSRQTLKVREHSVLGPYVDGLSKLAVTSYKDIESLMSEGNKSRTVAATNMNEESSRSHAVFKITLTHTLYDVKSGTSGEKVGKLSLVDLAGSERATKTGAAGDRLKEGSNINKSLTTLGLVISALADQSAGKNKNKFVPYRDSVLTWLLKDSLGGNSKTAMVATVSPAADNYDETLSTLRYADRAKHIVNHAVVNEDPNARIIRDLREEVEKLREQLTKAEAMKSPELKDRLEESEKLIQEMTVTWEEALRKTEEIAQERQKQLESLGISLQSSGIKVGDDKCFLVNLNADPALNELLVYYLKEHTLIGSANSQDIQLCGMGILPEHCIIDITSEGQVMLTPQKNTRTFVNGSSVSSPIQLHHGDRILWGNNHFFRLNLPKKKKKAEREDEDQDPSMKNENSSEQLDVDGDSSSEVSSEVNFNYEYAQMEVTMKALGSNDPMQSILNSLEQQHEEEKRSALERQRLMYEHELEQLRRRLSPEKQNCRSMDRFSFHSPSAQQRLRQWAEEREATLNNSLMRLREQIVKANLLVREANYIAEELDKRTEYKVTLQIPASSLDANRKRGSLLSEPAIQVRRKGKGKQIWSLEKLDNRLLDMRDLYQEWKECEEDNPVIRSYFKRADPFYDEQENHSLIGVANVFLESLFYDVKLQYAVPIINQKGEVAGRLHVEVMRLSGDVGERIAGGDEVAEVSFEKETQENKLVCMVKILQATGLPQHLSHFVFCKYSFWDQQEPVIVAPEVDTSSSSVSKEPHCMVVFDHCNEFSVNITEDFIEHLSEGALAIEVYGHKINDPRKNPALWDLGIIQAKTRSLRDRWSEVTRKLEFWVQILEQNENGEYCPVEVISAKDVPTGGIFQLRQGQSRRVQVEVKSVQESGTLPLMEECILSVGIGCVKVRPLRAPRTHETFHEEEEDMDSYQDRDLERLRRKWLNALTKRQEYLDQQLQKLVSKRDKTEDDADREAQLLEMRLTLTEERNAVMVPSAGSGIPGAPAEWTPVPGMETHIPVIFLDLNADDFSSQDNLDDPEAGGWDATLTGEEEEEFFELQIVKQHDGEVKAEASWDSAVHGCPQLSRGTPVDERLFLIVRVTVQLSHPADMQLVLRKRICVNVHGRQGFAQSLLKKMSHRSSIPGCGVTFEIVSNIPEDAQGVEEREALARMAANVENPASADSEAYIEKYLRSVLAVENLLTLDRLRQEVAVKEQLTGKGKLSRRSISSPNVNRLSGSRQDLIPSYSLGSNKGRWESQQDVSQTTVSRGIAPAPALSVSPQNNHSPDPGLSNLAASYLNPVKSFVPQMPKLLKSLFPVRDEKRGKRPSPLAHQPVPRIMVQSASPDIRVTRMEEAQPEMGPDVLVQTMGAPALKICDKPAKVPSPPPVIAVTAVTPAPEAQDGPPSPLSEASSGYFSHSVSTATLSDALGPGLDAAAPPGSMPTAPEAEPEAPISHPPPPTAVPAEEPPGPQQLVSPGRERPDLEAPAPGSPFRVRRVRASELRSFSRMLAGDPGCSPGAEGNAPAPGAGGQALASDSEEADEVPEWLREGEFVTVGAHKTGVVRYVGPADFQEGTWVGVELDLPSGKNDGSIGGKQYFRCNPGYGLLVRPSRVRRATGPVRRRSTGLRLGAPEARRSATLSGSATNLASLTAALAKADRSHKNPENRKSWAS
notes: kinesin KIF13B, human, full length, point mutant K414A; molar ratio about 1:5 (mScarlet (I): sfGFP); also called KIF13BK414A-sfGFP; HsKIF13BK414A-sfGFP-StrepII; source: Sf9, purified (Strep-Tactin XT, gel filtration); for the two-colour assay Sf9 co-infected with the sfGFP-StrepII and the mScarlet-StrepII viruses; not shown: sfGFP, C-terminal, kept
B2: binds [2].

B3: full-length human KIF13B (wild type), C-terminal sfGFP-StrepII (natural protein)
chain: B2 chain with A414K
notes: KIF13B, human, full-length cDNA from Transomics (BC172411); Predominantly monomeric in solution, minor dimer fraction (mass photometry); also called WT KIF13B; full-length KIF13B; source: Sf9 insect cells (baculovirus), purified (Strep-Tactin XT, gel filtration); not shown: sfGFP, C-terminal, kept
B3: binds [1].

B4: full-length human KIF13B K414A, C-terminal sfGFP-StrepII (natural protein, UniProt Q9NQT8 1-1826, looked up)
chain: B2 chain
notes: also called KI13B^K414A; source: Sf9 insect cells (baculovirus), purified (Strep-Tactin XT, gel filtration); not shown: sfGFP, C-terminal, kept
B4: binds [3].

B5: full-length human KIF13B V178Q, C-terminal sfGFP-StrepII (natural protein, UniProt Q9NQT8 1-1826, looked up)
chain: B2 chain with V178Q, A414K
notes: source: Sf9 insect cells (baculovirus), purified (Strep-Tactin XT, gel filtration); not shown: sfGFP, C-terminal, kept
B5: binds [3].

B6: human KIF13B tail-truncated (a.a. 1–679), C-terminal sfGFP-StrepII (domain or fragment, UniProt Q9NQT8 1-679, looked up)
chain: MGDSKVKVAVRIRPMNRRETDLHTKCVVDVDANKVILNPVNTNLSKGDARGQPKVFAYDHCFWSMDESVKEKYAGQDIVFKCLGENILQNAFDGYNACIFAYGQTGSGKSYTMMGTADQPGLIPRLCSGLFERTQKEENEEQSFKVEVSYMEIYNEKVRDLLDPKGSRQTLKVREHSVLGPYVDGLSKLAVTSYKDIESLMSEGNKSRTVAATNMNEESSRSHAVFKITLTHTLYDVKSGTSGEKVGKLSLVDLAGSERATKTGAAGDRLKEGSNINKSLTTLGLVISALADQSAGKNKNKFVPYRDSVLTWLLKDSLGGNSKTAMVATVSPAADNYDETLSTLRYADRAKHIVNHAVVNEDPNARIIRDLREEVEKLREQLTKAEAMKSPELKDRLEESEKLIQEMTVTWEEKLRKTEEIAQERQKQLESLGISLQSSGIKVGDDKCFLVNLNADPALNELLVYYLKEHTLIGSANSQDIQLCGMGILPEHCIIDITSEGQVMLTPQKNTRTFVNGSSVSSPIQLHHGDRILWGNNHFFRLNLPKKKKKAEREDEDQDPSMKNENSSEQLDVDGDSSSEVSSEVNFNYEYAQMEVTMKALGSNDPMQSILNSLEQQHEEEKRSALERQRLMYEHELEQLRRRLSPEKQNCRSMDRFSFHSPSAQQRLRQWAEEREATL
notes: KIF13B, human, a.a; 1–679; truncated after the predicted second coiled-coil, within the MBS domain; also called KIF13B^Δtail; KIF13^Δtail; source: Sf9 insect cells (baculovirus), purified (Strep-Tactin XT, gel filtration); not shown: sfGFP, C-terminal, kept
B6: binds [1]; binds [4].
